Entries after “also recorded” stand apart in the source; their conditions may differ.
Target: T1, thrombin digested Fg (Homo sapiens, UniProt P02675)
T1 construct: purchased Enzyme Research Labs
T1 sequence (P02675 45-491 limits assumed): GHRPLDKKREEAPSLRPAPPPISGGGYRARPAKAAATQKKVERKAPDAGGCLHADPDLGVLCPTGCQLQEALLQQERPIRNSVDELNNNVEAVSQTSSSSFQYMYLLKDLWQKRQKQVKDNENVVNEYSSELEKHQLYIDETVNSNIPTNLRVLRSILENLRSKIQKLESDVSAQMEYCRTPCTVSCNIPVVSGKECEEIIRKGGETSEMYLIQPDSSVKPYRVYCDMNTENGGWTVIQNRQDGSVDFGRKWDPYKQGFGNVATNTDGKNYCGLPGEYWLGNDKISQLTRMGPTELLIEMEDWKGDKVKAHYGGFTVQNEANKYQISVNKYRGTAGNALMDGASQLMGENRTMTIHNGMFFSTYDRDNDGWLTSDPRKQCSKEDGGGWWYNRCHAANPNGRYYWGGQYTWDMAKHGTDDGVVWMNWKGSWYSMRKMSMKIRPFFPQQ
T1 sequence (P02671 36-629 partner limits assumed): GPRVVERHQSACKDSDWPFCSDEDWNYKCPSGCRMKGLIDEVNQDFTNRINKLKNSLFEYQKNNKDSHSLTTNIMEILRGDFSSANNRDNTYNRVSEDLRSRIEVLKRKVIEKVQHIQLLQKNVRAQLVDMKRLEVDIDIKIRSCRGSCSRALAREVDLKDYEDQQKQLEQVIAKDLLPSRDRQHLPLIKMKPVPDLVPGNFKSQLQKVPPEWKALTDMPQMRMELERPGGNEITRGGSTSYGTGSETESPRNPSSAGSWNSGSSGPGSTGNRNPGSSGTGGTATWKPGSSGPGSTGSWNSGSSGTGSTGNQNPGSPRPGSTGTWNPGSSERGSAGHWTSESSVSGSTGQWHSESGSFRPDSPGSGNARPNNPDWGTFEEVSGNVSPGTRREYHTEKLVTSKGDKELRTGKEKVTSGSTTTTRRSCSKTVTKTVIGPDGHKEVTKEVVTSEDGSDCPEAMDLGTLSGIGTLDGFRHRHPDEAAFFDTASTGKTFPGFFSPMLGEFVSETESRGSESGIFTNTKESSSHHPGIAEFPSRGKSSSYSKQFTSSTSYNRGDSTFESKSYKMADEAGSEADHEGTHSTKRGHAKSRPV
T1 sequence (P02679 27-437 isoform P02679-2 partner limits assumed): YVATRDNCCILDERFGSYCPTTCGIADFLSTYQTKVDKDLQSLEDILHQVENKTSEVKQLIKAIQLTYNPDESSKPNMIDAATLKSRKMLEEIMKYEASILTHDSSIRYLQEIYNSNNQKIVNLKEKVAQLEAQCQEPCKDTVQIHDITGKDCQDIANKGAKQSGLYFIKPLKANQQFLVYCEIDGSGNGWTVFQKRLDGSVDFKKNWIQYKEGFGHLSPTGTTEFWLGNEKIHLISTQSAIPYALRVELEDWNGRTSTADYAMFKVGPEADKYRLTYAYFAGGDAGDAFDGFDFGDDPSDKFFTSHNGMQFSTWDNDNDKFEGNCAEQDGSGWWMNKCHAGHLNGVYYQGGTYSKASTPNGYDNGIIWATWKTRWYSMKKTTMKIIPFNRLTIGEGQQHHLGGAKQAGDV
Experiment: ELISA with thrombin-digested Fg
Type: binding
Conditions: Fg wells pretreated with thrombin 30 min 37° C.
Description: For the ELISA with thrombin-digested Fg, the plate was coated with Fg and blocked as described above. The plate was washed three times with PBST and 50 μl of 1.0 NIH unit/ml of thrombin was added to the Fg coated wells. The plate was incubated at 37° C. for 30 min. The plate was washed three times with PBST and 50 μl of 1.0 NIH unit/ml of hirudin (Sigma) was added to the wells and incubated at 37° C. for 30 min. The plate was washed three times with PBST and blocked with 1% BSA for 1 h at room temperature. After washing three times with PBST, 100 μl of biotin labeled rSdrG(50-597) (25-1000 nM) or a rSdrG(50-597)/hirudin (1.0 NIH unit/ml) mixture was added to the wells and incubated for 1 h at room temperature. The plate was washed three times with PBST and a 1:5000 dilution of streptavidin-AP conjugated (Boehringer Mannheim) in PBST/0.1% BSA was added to the wells for 1 h at room temperature. The plate was washed three times with PBST and developed as described above.

B1: rSdrG(50-597): recombinant His-tagged A region (residues 50-597) of SdrG, a fibrinogen-binding MSCRAMM from S. epidermidis (protein)
chain: HHHHHHAEENTVQDVKDSNMDDELSDSNDQSSNEEKNDVINNSQSINTDDDNQIKKEETNSNDAIENRSKDITQSTTNVDENEATFLQKTPQDNTQLKEEVVKEPSSVESSNSSMDTAQQPSHTTINSEASIQTSDNEENSRVSDFANSKIIESNTESNKEENTIEQPNKVREDSITSQPSSYKNIDEKISNQDELLNLPINEYENKVRPLSTTSAQPSSKRVTVNQLAAEQGSNVNHLIKVTDQSITEGYDDSDGIIKAHDAENLIYDVTFEVDDKVKSGDTMTVNIDKNTVPSDLTDSFAIPKIKDNSGEIIATGTYDNTNKQITYTFTDYVDKYENIKAHLKLTSYIDKSKVPNNNTKLDVEYKTALSSVNKTITVEYQKPNENRTANLQSMFTNIDTKNHTVEQTIYINPLRYSAKETNVNISGNGDEGSTIIDDSTIIKVYKVGDNQNLPDSNRIYDYSEYEDVTNDDYAQLGNNNDVNINFGNIDSPYIIKVISKYDPNKDDYTTIQQTVTMQTTINEYTGEFRTASYDNTIAFSTSSGQGQGDLPPE
  binding to thrombin digested Fg: significantly impaired; also recorded: unable to bind
Listed as SdrG
  binding to thrombin digested Fg: could not bind; also recorded: does not bind

Source: patent US6835378B2, “Method and compositions for inhibiting thrombin-induced coagulation” (The Texas A&M University System University, priority 2001, dated 2004)
